Results on 5 molecules are retold here after patent publication US20240067711A1 (MEDYTOX, published 2024).

A word on the EC50 (read off the curve): it is the concentration needed to bring the measured effect to its halfway point. High values mean lower potency in that assay, low ones higher potency in that assay. The term Kd denotes the concentration at which binding is half-saturated. The term koff denotes a measure of how fast the partners let go of each other. What is called kon is a measure of how fast the partners come together.

In test [1] the target is T1, recombinant human VEGF165 (human, UniProt P15692-4 27-191). Put plainly: cell-based or functional assay.
T1 sequence (P15692 other isoform, or with tags, fused parts or gaps limits assumed): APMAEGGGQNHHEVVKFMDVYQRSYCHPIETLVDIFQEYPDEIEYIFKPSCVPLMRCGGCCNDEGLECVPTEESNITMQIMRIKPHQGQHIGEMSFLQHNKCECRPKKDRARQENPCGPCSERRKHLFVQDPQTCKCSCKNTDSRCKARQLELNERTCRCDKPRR
For test [2], the target named is T2, FcγRI (R&D system company, 1257-Fc) (UniProt P12314 16-288). Put plainly: Octet; FcγRI loaded on anti-penta-His biosensor, antibody 100 nM as analyte. Background: In BLI a coated tip is dipped into the sample, and binding shifts an interference pattern.
T2 sequence (P12314 16-288 limits assumed): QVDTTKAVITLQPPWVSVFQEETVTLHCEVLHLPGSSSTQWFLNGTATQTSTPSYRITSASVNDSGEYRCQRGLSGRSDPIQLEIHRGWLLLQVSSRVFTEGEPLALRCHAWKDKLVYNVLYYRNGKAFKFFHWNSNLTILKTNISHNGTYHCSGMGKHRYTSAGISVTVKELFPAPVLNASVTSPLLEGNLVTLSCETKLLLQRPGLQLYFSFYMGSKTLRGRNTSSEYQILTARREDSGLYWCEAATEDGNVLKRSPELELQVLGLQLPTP
The target in test [3] is human VEGF (hVEGF), isoform not stated (human, UniProt P15692-4 27-191, limits assumed). Put plainly: ELISA on coated hVEGF (500 ng/ml), detection with anti-hIgG-Fc HRP, A450. As for the experimental part: ELISA was performed to confirm the binding ability to VEGF. First, 100 μl of hVEGF was added to an immunoplate at a concentration of 500 ng/ml and caused to react at room temperature for 1 hour. 2% skim milk was dissolved in PBST, and then, 200 μl thereof was added onto the VEGF-coated wells and the reaction was caused to occur at room temperature for 2 hours. After the reaction, the well was washed three times using 300 μl of PBST, and then, Hz2, AAA0289, AAA0308, AAA0589, AAA0592, and AAA0600, which were purified above, were diluted starting from at a concentration of 100 ng/ml by two-fold to make a total of 11 samples. The samples were placed on the VEGF-coated well and the reaction was caused to occur at room temperature for 20 minutes. After the reaction, the well was washed three times using 300 μl of PBST, and then, anti-hIgG-Fc HRP (1:3000, Thermo) was added thereto at 100 μl/well and then reacted for 30 minutes. Then, the well was washed three times as described above, and the TMB (BioFx company) solution was added thereto at 100 μl/well to develop color at room temperature for 5 minutes. After the color development, 2N sulfuric acid was added at 50 μl/well to stop the color development, and the absorbance was measured at 450 nm, and results are shown in FIGS. 4A and 4B.
human VEGF (hVEGF), isoform not stated, sequence (P15692 other isoform, or with tags, fused parts or gaps limits assumed): as the sequence (P15692 other isoform, or with tags, fused parts or gaps limits assumed) above

The target of test [4] is T1, recombinant human VEGF165. Briefly: Octet red96E BLI, human VEGF165 amine-coupled on AR2G sensor, hexamer as analyte (0.0625-4 nM), 30° C. Here is the method: (§1) Affinity for VEGF was determined as follows. Octet red96E was used, and human VEGF immobilized on the biosensor AR2G was interacted with AAA0308, AAA0589, AAA0592, and AAA0600 used as analytes, and binding and dissociation values thereof were compared and measured. As human VEGF, recombinant human VEGF165 (Sinobiological company) was used, and VEGF was immobilized on the AR2G sensor chip by an amine coupling method. At this time, the amount of VEGF used was 10 μg/ml, and the degree of coating was confirmed using a wavelength of 5 nm.
(§2) During measurement, the rotation speed was set to 100, and the temperature was measured at 30° C.
(§3) The concentration of the sample was adjusted using a kinetic buffer (Molecular Device Co.). The antibody solution of each concentration was used as a binding phase for 5 minutes, and then switched to a kinetic buffer to form a dissociation phase for 30 minutes.

Test [5] concerns the target T1, recombinant human VEGF165. Put plainly: cell-based or functional assay. The source holds these as a separate data set.
Test [6] has as its target T1, recombinant human VEGF165. Put plainly: Octet red96E BLI, human VEGF165 amine-coupled on AR2G sensor, hexamer as analyte (0.0625-0.6 nM), 30° C. Here is the method: as §1, §2, §3
The target in test [7] is T2, FcγRI (R&D system company, 1257-Fc). Briefly: Octet; FcγRI loaded on anti-penta-His biosensor, antibody 100 nM as analyte, 2 min association and 2 min dissociation. Here is the method: Binding evaluation for FcγR I, II, and III was performed as follows. Octet red96E was used, and […] FcγRI(R&D system company, 1257-Fc), […] FcγRII(R&D system company, 1597-CF), and […] FcγRIII(R&D system company, […]) were each loaded on the anti-pentia his biosensor, and a signal of about 5 nm was confirmed. In order to identify the reactivity of AAA0589 and AAA0592 to FcγRI, FcγRII, and FcγRIII, binding force was measured using an antibody concentration of 100 nM as an analyte. During measurement, rpm was set to 100, and the temperature was measured at 30° C. Samples were diluted using kinetic buffer (Molecular Device Co.). The antibody solution of each concentration was used as an association phase for 2 minutes, and then converted to a kinetic buffer to form a dissociation phase for 2 minutes.

B1: Lu007-F hexamer AAA0592 (antibody, human IgG1, kappa, L234A L235A)
heavy: EVQLVESGGGLVQPGGSLRLSCAASGYDFTHYGMNWIRQAPGKGLEWVGWINTYTGEPTYAADFKRRFTFSLDTSKSTVYLQMNSLRAEDTAVYYCAKYPHYYGTSHWYFDVWGQGTLVTVSSASTKGPSVFPLAPSSKSTSGGTAALGCLVKDYFPEPVTVSWNSGALTSGVHTFPAVLQSSGLYSLSSVVTVPSSSLGTQTYICNVNHKPSNTKVDKKVEPKSCDKTHTCPPCPAPEAAGGPSVFLFPPKPKDTLMISRTPEVTCVVVDVSHEDPEVKFNWYVDGVEVHNAKTKPREEQYNSTYRVVSVLTVCLQDWLNGKEYKCKVSNKALPAGIEKTISKAKGQPREPQVYTLPPSRDELTKNQVSLTCLVKGFYPSDIAVEWESNGQPENNYKTTPPVLDSDGSFFLYSKLTVDKSRWQQGNVFSCSVMHEALHNHYTQKSLSLSPGKPTLYNVSLVMSDTAGTCY
light: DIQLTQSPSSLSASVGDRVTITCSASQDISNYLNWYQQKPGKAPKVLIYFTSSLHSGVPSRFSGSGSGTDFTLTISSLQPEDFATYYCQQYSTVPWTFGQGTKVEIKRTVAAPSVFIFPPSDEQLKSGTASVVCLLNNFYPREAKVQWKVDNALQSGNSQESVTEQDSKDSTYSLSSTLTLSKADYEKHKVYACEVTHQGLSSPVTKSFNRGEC
notes: also called Lu007 hexamer AAA0592
Turning to B1, the “IC50 (read off the curve)” value in test [1] is around 300 pM. In addition, the binding result in test [2] was “no binding (tested: 100 nM)”. Further, the “EC50 (read off the curve)” value in test [3] was around 90 pM. In test [4], the Kd was below 1 pM, the off-rate (koff) was below 1e-07 s⁻¹ and the kon was found to be 666000 M⁻¹ s⁻¹. In test [5], the “IC50 of inhibition of the VEGF-induced calcium increase in HUVEC cells” value stood at 200 pM.

B2: Aflibercept CL kappa hexamer AAA0600 (Fc fusion)
chain: SDTGRPFVEMYSEIPEIIHMTEGRELVIPCRVTSPNITVTLKKFPLDTLIPDGKRIIWDSRKGFIISNATYKEIGLLTCEATVNGHLYKTNYLTHRQTNTIIDVVLSPSHGIELSVGEKLVLNCTARTELNVGIDFNWEYPSSKHQHKKLVNRDLKTQSGSEMKKFLSTLTIDGVTRSDQGLYTCAASSGLMTKKNSTFVRVHEKTVAAPRTVAAPSVFIFPPSDEQLKSGTASVVCLLNNFYPREAKVQWKVDNALQSGNSQESVTEQDSKDSTYSLSSTLTLSKADYEKHKVYACEVTHQGLSSPVTKSFNRGESDKTHTCPPCPAPEAAGGPSVFLFPPKPKDTLMISRTPEVTCVVVDVSHEDPEVKFNWYVDGVEVHNAKTKPREEQYNSTYRVVSVLTVCLQDWLNGKEYKCKVSNKALPAGIEKTISKAKGQPREPQVYTLPPSRDELTKNQVSLTCLVKGFYPSDIAVEWESNGQPENNYKTTPPVLDSDGSFFLYSKLTVDKSRWQQGNVFSCSVMHHALHNHYTQKSLSLSPGKPTLYNVSLVMSDTAGTCY
B2: in test [1], the “IC50 (read off the curve)” value is around 200 pM. Further, the half-maximal effective concentration (EC50 (read off the curve)) in test [3] was around 40 pM. The Kd in test [6] was 2.03 pM. Also, the “IC50 of inhibition of the VEGF-induced calcium increase in HUVEC cells” value in test [5] was determined as 200 pM.

B3: Hz2-F hexamer AAA0589 (antibody, human IgG1, kappa, L234A L235A)
heavy: EVQLVESGGGLVQPGGSLRLSCAVSGIDLNRYSLTWIRQAPGKGLEWVAIVGGSGVTYYANWAKGRFTISRDDSKNTLYLQMNSLRAEDTAVYYCARGSDRSAYAPDIWGQGTLVTVSSASTKGPSVFPLAPSSKSTSGGTAALGCLVKDYFPEPVTVSWNSGALTSGVHTFPAVLQSSGLYSLSSVVTVPSSSLGTQTYICNVNHKPSNTKVDKKVEPKSCDKTHTCPPCPAPEAAGGPSVFLFPPKPKDTLMISRTPEVTCVVVDVSHEDPEVKFNWYVDGVEVHNAKTKPREEQYNSTYRVVSVLTVCLQDWLNGKEYKCKVSNKALPAGIEKTISKAKGQPREPQVYTLPPSRDELTKNQVSLTCLVKGFYPSDIAVEWESNGQPENNYKTTPPVLDSDGSFFLYSKLTVDKSRWQQGNVFSCSVMHHALHNHYTQKSLSLSPGKPTLYNVSLVMSDTAGTCY
light: DIQLTQSPSSLSASVGDRVTITCQSSQSIYSNNYLAWYQQKPGKAPKLLLYQASKLASGVPSRFSGSGSGTDFTLTISSLQPEDFATYYCLGVYDDDADNAFGQGTKVEIKRTVAAPSVFIFPPSDEQLKSGTASVVCLLNNFYPREAKVQWKVDNALQSGNSQESVTEQDSKDSTYSLSSTLTLSKADYEKHKVYACEVTHQGLSSPVTKSFNRGEC
notes: also called hexameric antibody AAA0589
With B3, the “IC50 (read off the curve)” value in test [1] was around 200 pM. Moreover, the binding result in test [2] is “no binding (tested: 100 nM)”. Moreover, in test [3], the “EC50 (read off the curve)” value is around 40 pM. Besides, in test [4], the dissociation constant (Kd) was below 1 pM, the koff is below 1e-07 s⁻¹ and the kon came to 208000 M⁻¹ s⁻¹. The “IC50 of inhibition of the VEGF-induced calcium increase in HUVEC cells” value in test [5] stood at 200 pM.

B4: Omal013 (positive control antibody) (antibody, human IgG1, kappa)
heavy: not shown
light: B3 light
notes: also called positive control group
Consider B4, for which, in test [7], the binding result was “binds”.

B5: Hz2 humanized anti-VEGF antibody (monomer) (antibody, V domains shown)
VH: EVQLVESGGGLVQPGGSLRLSCAVSGIDLNRYSLTWIRQAPGKGLEWVAIVGGSGVTYYANWAKGRFTISRDDSKNTLYLQMNSLRAEDTAVYYCARGSDRSAYAPDIWGQGTLVTVSS
VL: DIQLTQSPSSLSASVGDRVTITCQSSQSIYSNNYLAWYQQKPGKAPKLLLYQASKLASGVPSRFSGSGSGTDFTLTISSLQPEDFATYYCLGVYDDDADNAFGQGTKVEIKR
With B5, the “EC50 (read off the curve)” value in test [3] was around 20 pM.
